Test results: a protein production outcome set (Wang et al. 2014)

Experiment: label from the status in PepcDB records

Sequence | protein production
SNDQYHRAARDGYLELLKEATRKELNAPDEDGMTPTLWAAYHGNLESLRLIVSRGGDPDKCDIWGNTPLHLAASNGHLHCLSFLVSFGANIWCLDNDYHTPLDMAAMKGHMECVRYLDSIAAKQSSLNPKLVGKLKDKAFREAERRIRECAKLQRRHHERMERRYRRELAERSDTLSFSSLTSSTLSRRLQHLALGSHLPYSQATLHGTARGKTKMQKKLERRKQGGEGTFKVSEDGRKSARSLSGLQLGSDVMFVRQGTYANPKEWGRAPLRDMFLSDEDSVSRATLAAEPAHSEVSTDSGHDSLFTRPGLGTMVFRRNYLSSGLHGLGREDGGLDGVGAPRGRLQSSPSLDDDSLGSANSLQDRSCGEELPWDELDLGLDEDLEPETSPLETFLASLHMEDFAALLRQEKIDLEALMLCSDLDLRSISVPLGPRKKILGAVRRRRQAMERPPALEDTEL | not failed
MATETLTKSDAITQSLRAAVDRNFNDQVAFLQRMVQFRSVRGEEAPQQEWLAQQFADRGYKVDTFSLADVDIASHPKAAPMDTIDPAGSMQVVATADSDGKGRSLILQGHIDVVPEGPVDLWSDPPYEAKVRDGWMIGRGAQDMKGGVSAMIFALDAIRTAGYAPDARVHVQTVTEEESTGNGALSTLMRGYRADACLIPEPTGHTLTRAQVGAVWFRLRVRGTPVHVAYSETGTSAILSAMHLIRAFEEYTKELNAQAVRDPWFGQVKNPIKFNVGIIKGGDWASSTAAWCELDCRLGLLTGDTPQEAMRGIEKCLADAQATDSFLSENPAELVWSGFQADPAVCEPGGVAEDVLTAAHKAAFNAPLDARLSTAVNDTRYYSVDYGIPALCYGPYGQGPHAFDERIDLESLRKTTLSIALFVAEWCGLRKL | not failed
MKELNIALLGLGTVGSGVVKIIEENRQQIKDTINKDIVIKHILVRDKSKKRPLNISQYHLTEDINDILNDNSIDIVVEVMGGIEPTVDWLRTALKNKKHVITANKDLLAIHLKLLEDLAEENGVALKFEASVAGGIPIVNAINNGLNANNISKFMGIFNGTSNFILSKMTHEQTTFKDALEEAQRLGFAEADPTDDVEGVDAARKVVITSYLSFNQVIKLNDVKSVGISDITLADINAANSLNYKIKLIGKGTYENGYVNASVEPTLIHKNHQLAAVENEYNAIYVIGDAVGDTMFYGKGAGSLATGSAVVSDLLNVALFFESNLHTLPPHFELKTEETKEMMDGAEPVVIQEKSNYYIVISNNNKSLEKVEYDIKKKLPFHKSLQLVERDQDTYAIIVTGIETSPEKVLNQSGFNIKKVYPVEGV | failed
MEATKERVGLLDTILPPALADAGLEDCALPPESIQEAFRKAANAVKSRAASIFDHEEEDGCLADPIPETADKIIVGGDNERDTGPCLAGKGIEKLAESKQAGDLVVAGEGEEGKSCVDGLKDLDVEGIERSSEKKDQSDEDEEEEMKPILVEGFV | failed
MNMNITYISIYKTSLPVLVSLLMEYLIGFTDTAYLGRVGETELAASAIAGTYYMIIYMIGFGFSIGAQILIAQYNGNQQYKEAGKILSQGILFLLIIAVIVILFSSIISPIILKSIIDSESVLQAVLQYLDWRIYGFFFSFTIIMFRAFYIGIIHTSALMLNSITMVAINVILNYILIFGALGIPVLGISGAAIASVISEAVAVIHFIIYTQKNVSSCKYGLKRRITIDCTILKKILSISIWMMLQHGLVFGSWFVFFITMEHFGERSLAITNIVRNISSFLFLFVQAFASVVSSLVGNLIGENKGNSILYVCKKVIFLCYMTILPIMVLFLFFPSSTLRIYSDNTVLVFEAIPTLKVMLTSYLIAVPTFVFFSAVSGIGHAVASLLIAFISLVVYIVYVETISHFSSSVPLLWTSEHIYFSCVFILSLYHIHHSWMSFINQDKKLTTNIS | failed
MSEFHSEISTLSPAPLWQFFDKICSIPHPSKHEEALAQYIINWATEQGFDVRRDPTGNVFIKKPATPGMENKKGVVLQAHIDMVPQKNEDTDHDFTKDPIQPYIDGEWVTAKGTTLGADNGIGMASCLAVLASKDIKHGPIEVLLTIDEEAGMTGAFGLEAGWLEGDILLNTDSEQEGEVYMGCAGGIDGAMTFDIKRDAIPTGFVTRQLTLKGLKGGHSGCDIHTGRGNANKLLGRFLAGHAQELDLRLVEFRGGSLRNAIPREAFVTVAVPAENQEKLAELFNYYTELLKAELGKVETGIVTFNEEIVTESQAFTAADQQRFIAALNACPNGVMRMSDEIEGVVETSLNVGVITTEENKVTVLCLIRSLIDSGRSQVESMLRSVAELAGAQVEFSGAYPGWKPDADSEIMAIFRDMYEGIYGHKPNIMVIHAGLECGLFKEPYPNMDMVSFGPTIKFPHSPDEKVKIDTVQLFWDQMVALLEAIPEKALEHHHHHH | not failed
MKLSNKTQALHDLIAPAVQACDVNLWGIEFIPQGKRSLLRIFIDKPVDETAEPVLNEDGETELGRGIGVQDCVRVTQQVGAILDVHDPISGEYALEVSSPGWDRPFFQLEQMSAYIGQQVALRLISAVENRRKFQAKLLLVDLENEMIQVEVDGKHVLEIDSHNIDKANLIYQD | failed
LTECLSQGEDIRLSKILIFAGTTEGRKLSEHLCKRGIEHTVCVATEYGEIVLHENPFAHVHMGRMDSEGMRSFFAEQKCKLIVDATHPYAAIVTENIKQAVYAFNEAHAVTDNQADSSISENIEYVRLKRDTDISADYDNIRYFEDNEACAKALNNTDGNILLTTGSKELSVYCKTSDVRERLYVRVLPGLESISLCMHNDITGKHILALQGPFSTQLNEALIDQYDIRCLVTKKSGAAGGFIEKIAAAKNKNIPVYIVGQSVQDDGMSFEAVCEYIDSKYNKLHIMLAGIGMGNDACMTKAVSDAIESADIILGASRMIEKYSAKIDKKPYYLAEQIIPYLYEICADTAKISNVLILFSGDTGFYSGSRKLYLAIKNEISEGKLNADVSILPGISSVSYMAAAVGETYNDAYICSIHGVKLSNITSRISHHAKTFMLMSGVRDVNMLGHLLSSDERYGLQKCSVTVGYQLSYPDENISQLSPQECTKLKREGLYICMIKNPNPVAKNVTPQLSDAAFIREKVPMTKEEIRHVSICKLHLKSDSVLYDVGSGTGSIAVEAASLSDDMEVYAIEQKENAVQLITKNKEKHGLENIHVINAKAPDGMENLPVPTHAFIGGSSGNLKEIIEALKAKNPHIRIVINAISMETICEIKEIMSAYNVKNEDIVQLQVSRSKQIGHYHLMQAENPVWICSFEF | failed
RLAHVSAASRELARALEPDAVMAVLAGILRERLGFYRVTVALVREGALVGHLTRRGEDLYWTEGRSRIRLPVATSPDPMAQAVRERRTRIVPREALPPHLAEGVGASVAYVPVLVEEEALGCVAVDHGPGGPPVTEEEVEYVELLAGVAGVALRNAQLYRERTALSLALAAERKRLS | failed
MRGEFLSRSADETREYARRFASGLKPGDTVCLTGPLGAGKTEFMRGITEAFGCEEQLSSPTFSLMNIYEGLLRGQPFELHHFDLYRLESEKELDSAGFDDYLSGPFLSVVEWGERFASLDRRYTRRVQLFIAGESQRKIVIT | failed
MSPNLFIHPRQMPQILLALLGKNLVEIARQFFSARDSNPFFTPAGLTRIARLGRSAVLIGKSKPVPAGKRPTGSKPVHSLPPDRVDPENHARLEVAETDRFPLVKESAPPASFFVEQSPSPAFGEEGNGACKGSGIGGRCVLCVGGRAVLYPEYRRVVEASGGKLVIYRNLPQEPGHHLPVLLDQADMVVCPLDCVNHTAFFTVKRYCRRSGKPCVLLDRSNLSTFCKGIATLAGLYTSPAPARSDQSKRRCPASPEEGQFKDYLEHHHHHH | failed
MPSQKPIIVSKTSAAASSSSDRLRIIPLGGLHEIGKNTCIYEVGDEILLVDAGLAFPTDGMHGVNVVLPDMTYLRENQHRIKAMVVTHGHEDHIGGIPFHLRQLDIPIIYGPRLAMALLAGKLEEAGVVGRANVKTVQPREVVRIGQNFLVEFIRNTHSIADSFTLAIRTPLGVVIHTGDFKFDHTPVDGETFDIQRLADYGEQGVLCLVSDSTNAELPGFTPSERSVFPNLDRAFSQAQGRLIVTTFASSVHRVNMILELAKKHGRKVTVLGRSMLNVIAHARNLGYIHCSDDLFLPPKELRDHPDRDVLILTTGSQGEPLAALTRIARQEHPQVKIRQGDTVIFSANPIPGNTISVVNTIDQLMMQGAHVVYGKGAGIHVSGHGCQEDQKLMIALTKPKFFVPVHGEHRMLVQHCKTAQSMGVPPEHMIVIDNGDTVELTPESIGLGDRVTAGIELVDTSRTGLVDGKALKERQQLAEDGLVSLSALVNSQGQLVDAPTVHLRGVVTSADPRRVSVWAQKEVEMALDNRWADYCRRLPSGELDVDWVGLHAEVEVGMQRRLKRELQCVPMILCTLQSVPSVAAQPAEEDNRMRRRRSSAPIKVGAKL | failed
MADVVVGIQWGDEGKGKIVDRIAKDYDFVVRYQGGHNAGHTIVHKGVKHSLHLMPSGVLYPKCKNIISSAVVVSVKDLCEEISAFEDLENRLFVSDRAHVILPYHAKKDAFKEKSQNIGTTKKGIGPCYEDKMARSGIRMGDLLDDKILEEKLNAHFKAIEPFKKAYDLGENYEKDLMGYFKTYAPKICPFIKDTTSMLIEANQKGEKILLEGAQGTLLDIDLGTYPFVTSSNTTSASACVSTGLNPKAINEVIGITKAYSTRVGNGPFPSEDTTPMGDHLRTKGAEFGTTTKRPRRCGWLDLVALKYACALNGCTQLALMKLDVLDGIDAIKVCVAYERKGERLEIFPSDLKDCVPIYQTFKGWEKSVGVRKLDDLEPNVREYIRFIEKEVGVKIRLISTSPEREDTIFL | failed
MYKEGACLYRNPLRSKSDVKDWRMEGGGQISFDDHSLHLSHVQDEAHFVFWCPETFPDGIIVTWDFSPIEQPGLCMLFFAAAGIRGEDLFDPSLRKRTGTYPEYHSGDINALHLSYFRRKYAEERAFRTCNLRKSRGFHLAAMGADPLPSPDDADSPYRMKLIKDKGYVHFSINGLPILEWMDDGSTYGPVLTKGKIGFRQMAPMKAVYRDFAVHQAVRR | not failed
MLSKILYADSGTSQTQEMLKAMMDFPAVQKASITILHVVPPQITTEAFTEKWAEGGKILADLLEDVAIEPSKVSTVLRQGDPKGVVCDVANEIDADLIIMGSRGLKRLEAILENSVSQYVFQLTNHPMLLVKDDIYVKRIKRVMVALDKSAAAEYALELALELLRDYPEGELILARVNPDLKPDLLPLSRQEIEENPVLAPAIAKAKRLGIAYRCTVTGGKPGEKLCELAEDYNADLMLLGSPDRRPSIAKSLPDLDRLLGTSLSDYIRVNAPCPVLLTRKEGI | failed
MGHHHHHHSHMTDPSKLAVAVVCSSNMNRSMEAHNFLAKKGFNVRSYGTGERVKLPGMAFDKPNVYEFGTKYEDIYRDLESKDKEFYTQNGLLHMLDRNRRIKKCPERFQDTKEQFDIIVTVEERVYDLVVMHMESMESVDNRPVHVLNVDVVDNAEDALMGAFVITDMINMMAKSTDLDNDIDELIQEFEERRKRVILHSVLFY | not failed
MEASMERFDNAPETALAWHRQGLGAALATVVETWGSAPRRVGAQLVIGGDGRIEGSVSGGCVEGAVIVEALEALEEGQARLLEFGVSDEDAFAVGLACGGTIRVLVEPVGQVLSEVMLAELVAARASRQALAYVVDTARGTRALVRDAYPERMRMDRSGFDEDGRTFVAVHNPPLRLIVVGAVHIAQALVPMARIAGYDPVVIDPREAFASDARFPGETILHDWPDEAVAKLGLDARTALVLLTHDPKLDDPALEAALAADVFYIGALGSTRTHAKRVARMQEAGFTEAQIGRIHGPVGLDIGAAGPAEIAVAILAQMTAVLRGRA | not failed
MEKCSRETLLFIFITISSVATSTSTWMPMDGNYGASYCLSWRLAVETNNVRAWRIVPLQCLRYVEVYMLAGQYDRDVQLTVDQIKVYLNEIILPGDGMDAWILDVDDTCFSNVFYYRLKRYGCDPYDPTGFRTWAMKGESPAIQPVLELFYKLIETGFKVFLVTGRDEETLRQATLENLHNQGFTGYERLIMRTADNKRQSATTYKTRIRKEMMEEGYRIWGNVGDQWSDLQGEYSGDRTFKIPNPMYFVP | failed
